Each block holds one binder with its values, some of them ahead of it.
What was measured:
[1] = target: T1, human FcγRIIIa(F) (human, UniProt P08637 17-208, limits assumed); assay: SPR, captured antibody, FcγR analyte; bound amount per captured antibody
T1 construct: also called FcgRIIIaF; FcγRIIIa allotype F158
T1 sequence (P08637 other isoform, or with tags, fused parts or gaps limits assumed): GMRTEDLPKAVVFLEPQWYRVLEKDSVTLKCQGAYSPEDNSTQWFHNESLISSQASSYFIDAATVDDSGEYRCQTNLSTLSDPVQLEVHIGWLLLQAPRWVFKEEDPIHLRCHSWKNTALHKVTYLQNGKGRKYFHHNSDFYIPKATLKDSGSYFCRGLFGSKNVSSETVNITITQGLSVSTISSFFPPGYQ
Description: (§1) Interaction between each modified antibody and Fcγ receptor prepared in the manner described above was analyzed using the BIACORE™ T100 surface plasmon resonance system (GE Healthcare), BIACORE™ T200 surface plasmon resonance system (GE Healthcare), BIACORE™ A100 surface plasmon resonance system or BIACORE™ 4000 surface plasmon resonance system. HBS-EP+(GE Healthcare) was used for the running buffer, and measurements were carried out at 25° C. The chips used were chips in which antigen peptides, Protein A (Thermo Scientific), Protein A/G (Thermo Scientific) or Protein L (ACTIGEN® protein (Alltech or BioVision) were immobilized on the Series S Sensor Chip CM5 (GE Healthcare) or Series S Sensor Chip CM4 (GE Healthcare) by amine coupling, or chips in which preliminarily biotinylated antigen peptides were allowed to interact and then immobilized on the Series S Sensor Chip SA (certified) (GE Healthcare). The target antibodies were captured on these sensor chips, Fcγ receptor diluted with the running buffer was allowed to interact, followed by measurement of the amount of bound antibody. The amounts bound were compared between antibodies. However, since the amount of Fcγ receptor bound depends on the amount of captured antibody, the values used for comparison were first corrected by dividing the amount of Fcγ receptor bound by the captured amount of each antibody. Through reaction with 10 mM glycine-HCl at pH 1.5, the sensor chips were regenerated by washing off antibody captured on the sensor chips and used repeatedly.
(§2) Binding strength was evaluated according to the following method based on the results of analyzing the interaction with each FcγR. […] That value was then further multiplied by 100, and the resulting value was used as an indicator of relative binding activity to each FcγR.

[2] = target: T2, human FcγRIIa(R) (human, UniProt P12318 36-217); assay: SPR, captured antibody, FcγR as analyte
T2 construct: Soluble analyte in SPR; also called FcgRIIaR; FcγRIIa type R
T2 chain: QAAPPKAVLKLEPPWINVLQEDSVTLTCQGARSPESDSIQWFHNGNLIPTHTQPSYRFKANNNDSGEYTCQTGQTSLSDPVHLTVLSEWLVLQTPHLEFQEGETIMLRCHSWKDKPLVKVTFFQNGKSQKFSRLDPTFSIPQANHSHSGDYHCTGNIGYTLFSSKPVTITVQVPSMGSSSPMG
Description: as §1, §2

[3] = target: T3, human FcγRIIIa(F) (human, UniProt P08637 17-208, limits assumed); assay: SPR, captured antibody, FcγR as analyte
T3 construct: Soluble analyte in SPR; allotype F158 stood in the assay; also called FcgRIIIaF; FcγRIIIa allotype F158
T3 sequence (P08637 other isoform, or with tags, fused parts or gaps limits assumed): as the sequence (P08637 other isoform, or with tags, fused parts or gaps limits assumed) above
Description: as §1, §2

[4] = target: T4, human FcγRIIa(H) (human, UniProt P12318 36-217); assay: SPR, captured antibody, FcγR as analyte
T4 construct: Soluble analyte in SPR; also called FcgRIIaH; FcγRIIa type H
T4 sequence: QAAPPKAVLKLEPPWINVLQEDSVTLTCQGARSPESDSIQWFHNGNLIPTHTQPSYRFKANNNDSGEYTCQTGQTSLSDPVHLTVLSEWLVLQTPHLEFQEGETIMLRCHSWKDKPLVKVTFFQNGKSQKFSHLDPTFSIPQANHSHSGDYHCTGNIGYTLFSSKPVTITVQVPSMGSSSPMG
Description: as §1, §2

[5] = target: T5, human FcγRIIb (human, UniProt P31994 43-217, limits assumed); assay: SPR, captured antibody, FcγR as analyte
T5 construct: Soluble analyte in SPR; also called FcgRIIb; FcγIIB
T5 sequence: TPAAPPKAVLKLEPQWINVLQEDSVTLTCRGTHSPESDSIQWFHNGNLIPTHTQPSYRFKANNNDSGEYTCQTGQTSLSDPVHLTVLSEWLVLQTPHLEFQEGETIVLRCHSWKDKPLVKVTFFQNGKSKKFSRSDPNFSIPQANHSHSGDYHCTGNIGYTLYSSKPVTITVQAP
Description: as §1, §2

B1: GpH7-B3 G236R/GpL16-k0 (antibody, human IgG1)
heavy: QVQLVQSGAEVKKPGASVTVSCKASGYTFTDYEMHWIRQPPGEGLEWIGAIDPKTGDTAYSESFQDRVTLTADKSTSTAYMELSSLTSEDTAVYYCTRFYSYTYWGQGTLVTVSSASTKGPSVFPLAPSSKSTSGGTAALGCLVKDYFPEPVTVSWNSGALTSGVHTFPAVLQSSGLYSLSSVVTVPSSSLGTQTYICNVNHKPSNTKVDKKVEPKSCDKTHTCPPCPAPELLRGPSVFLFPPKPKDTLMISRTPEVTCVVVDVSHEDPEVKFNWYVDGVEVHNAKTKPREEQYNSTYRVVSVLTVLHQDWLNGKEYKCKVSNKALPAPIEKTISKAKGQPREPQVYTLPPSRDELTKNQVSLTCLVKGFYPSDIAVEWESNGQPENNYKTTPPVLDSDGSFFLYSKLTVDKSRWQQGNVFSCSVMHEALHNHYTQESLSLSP
light: DIVMTQSPLSLPVTPGEPASISCQASESLVHSNRNTYLHWYLQKPGQSPQLLIYKVSNRFSGVPDRFSGSGSGTDFTLKISRVEAEDVGVYYCSQNTHVPPTFGQGTKVEIE
notes: anti-glypican-3 IgG1; B3 constant region (G1d with K439E); also called B3 variant; copies: 2 + 2
relative binding activity [1]: 1 % of GpH7-B3/GpL16-k0

B2: GpH7-B3 variant D265F/GpL16-k0 (antibody, human IgG1)
heavy: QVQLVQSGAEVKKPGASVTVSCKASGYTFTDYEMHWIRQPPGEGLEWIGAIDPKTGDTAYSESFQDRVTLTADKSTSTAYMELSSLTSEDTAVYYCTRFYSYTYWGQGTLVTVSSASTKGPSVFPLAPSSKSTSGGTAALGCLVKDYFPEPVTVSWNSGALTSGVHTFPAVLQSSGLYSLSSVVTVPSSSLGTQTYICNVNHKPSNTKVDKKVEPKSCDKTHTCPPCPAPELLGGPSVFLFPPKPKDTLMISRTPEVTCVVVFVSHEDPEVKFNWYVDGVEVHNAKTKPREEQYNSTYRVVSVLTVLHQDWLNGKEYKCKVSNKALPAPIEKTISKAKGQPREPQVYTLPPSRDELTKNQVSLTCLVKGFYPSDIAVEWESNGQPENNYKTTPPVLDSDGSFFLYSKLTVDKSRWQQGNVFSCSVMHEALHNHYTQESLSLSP
light: DIVMTQSPLSLPVTPGEPASISCQASESLVHSNRNTYLHWYLQKPGQSPQLLIYKVSNRFSGVPDRFSGSGSGTDFTLKISRVEAEDVGVYYCSQNTHVPPTFGQGTKVEIE
notes: copies: 2 + 2
relative binding activity [2]: 1 % of GpH7-B3/GpL16-k0

Second part, the binder after the results:

relative binding activity [3]: 1 % of GpH7-B3/GpL16-k0
B3: GpH7-B3 variant P238W/GpL16-k0 (antibody, human IgG1)
heavy: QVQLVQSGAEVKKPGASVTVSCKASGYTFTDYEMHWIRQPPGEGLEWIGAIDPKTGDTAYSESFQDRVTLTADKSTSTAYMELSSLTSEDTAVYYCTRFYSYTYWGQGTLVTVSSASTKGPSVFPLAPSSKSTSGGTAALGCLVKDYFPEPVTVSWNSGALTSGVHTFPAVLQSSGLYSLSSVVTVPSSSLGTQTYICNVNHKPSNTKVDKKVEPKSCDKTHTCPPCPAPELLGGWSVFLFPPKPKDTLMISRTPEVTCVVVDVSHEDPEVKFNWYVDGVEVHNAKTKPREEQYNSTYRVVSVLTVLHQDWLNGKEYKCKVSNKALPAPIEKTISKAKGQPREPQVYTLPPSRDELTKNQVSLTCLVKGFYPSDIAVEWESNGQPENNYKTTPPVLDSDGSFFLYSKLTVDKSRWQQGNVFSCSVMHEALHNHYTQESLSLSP
light: DIVMTQSPLSLPVTPGEPASISCQASESLVHSNRNTYLHWYLQKPGQSPQLLIYKVSNRFSGVPDRFSGSGSGTDFTLKISRVEAEDVGVYYCSQNTHVPPTFGQGTKVEIE
notes: copies: 2 + 2

relative binding activity [4]: 1 % of GpH7-B3/GpL16-k0 | relative binding activity [5]: 2 % of GpH7-B3/GpL16-k0
B4: GpH7-B3 variant P238K/GpL16-k0 (antibody, human IgG1)
heavy: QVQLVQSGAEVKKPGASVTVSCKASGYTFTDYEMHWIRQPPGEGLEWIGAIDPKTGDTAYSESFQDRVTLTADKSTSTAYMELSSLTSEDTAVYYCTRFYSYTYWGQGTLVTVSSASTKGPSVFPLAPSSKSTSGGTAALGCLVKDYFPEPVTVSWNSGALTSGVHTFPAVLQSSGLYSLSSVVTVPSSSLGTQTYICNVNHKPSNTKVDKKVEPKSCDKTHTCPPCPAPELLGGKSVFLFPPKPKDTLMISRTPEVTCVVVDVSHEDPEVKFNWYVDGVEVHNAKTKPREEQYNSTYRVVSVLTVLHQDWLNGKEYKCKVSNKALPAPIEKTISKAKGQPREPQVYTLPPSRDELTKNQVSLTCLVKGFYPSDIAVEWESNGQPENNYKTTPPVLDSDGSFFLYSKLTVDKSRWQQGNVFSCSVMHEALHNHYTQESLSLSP
light: DIVMTQSPLSLPVTPGEPASISCQASESLVHSNRNTYLHWYLQKPGQSPQLLIYKVSNRFSGVPDRFSGSGSGTDFTLKISRVEAEDVGVYYCSQNTHVPPTFGQGTKVEIE
notes: copies: 2 + 2

From patent US20230257470A1 (published 2023)
